The series is described as follows: soluble on expression in E. coli; label from the status in PepcDB or PDB records.
As to “MSISTIRRQVKNVAYNFSDAQVKVREATSNDPWGPSTALMSEIADLTHNPMAFTEIMSIVWKRLNDSGKNWRHVYKSLVLLDFLIKCGHEKVAQQCRENVFTIETLKDFQHVEDNRDQGLNIREKAKQITSLLSDDERLKNERTRFILTRNKFKQNNPGPVGAESRRSNRHHVTDASLDPEYEDARPSTATEEEMQLQIALALSREECEKADEMRKSDDARLQMALEESQKLQDADRLATTKQGTVSSGQLTQSALDDLLSLGVGELVSGNNDQPSSSSAWGMNDPWGAPQASASLNTNDQMFANSMSNNDPWATSTVAQPVAATAPNSDPFASWDAPAPAATTPSTMPTSSSFDLLGGDLLSPTNSLSANINTNNSTNGTRKTPENFLGENSNLVNLDNLLGSGTPSTTGGNPFLTGAAPANANPFAAQQRKSPTLNEMRAAQGQAPPIPSMAPRGTLPQANPFANPF”, the “soluble on expression in E. coli” value was “not soluble”.

In the case of “MSITHLMRQQVEELFKRFLEKTGLSEEATVYAVFIPKEEEVDEESVDVFEQRVNPKDAESVENFVSRLTKVALENDVKELKLYALVLDRDGETLIIAREENPEADEVIKELIERMKEEV”, the “soluble on expression in E. coli” value was “not soluble”.

For “MSIWQRVSFTHRFSQLPSAFYTLVEPQPLDNTRWVAWNGEFAQQFGLPAAQNDELLAVFSGQSEFEPFRPLAMKYAGHQFGVYNPDLGDGRGLLLAEIEHQNGTWFDIHLKGAGLTPYSRMGDGRAVLRSTIREYLCSEAMAGLGIPTTRALGMVVSDTPVYREKTEFGAMLIRMAETHVRFGHFEHLFYTNQLAEQKLLADKVIEWHFADCASAEKPYAAMFGEIVQKTADMIAYWQAYGFAHGVMNTDNMSILGQTFDYGPFGFLDDYEPGYICNHSDYQGRYAFEQQPRIALWNLSALAHALSPLVEREDLEQALSQFEGRLSQQFSRLMRSKLGLKTKIAEDGRLFESMFELLNQNHTDYTRFFRALSNLDKQPAQEVIDLFIDREAAQAWLDLYLARCELEVDEIGEPISAEQRSEQMRQTNPKYILRNYLAQLAIDKAEEGDFSEVHRLAEILRHPYDSQPEFEAYAKLPPEWGKKMEISCSSLEHHHHHH”, the “soluble on expression in E. coli” value was “not soluble”.

Take “MSKAEFQKFHDEMKALKNAGKHDEFAKKFAAKDAVFIGPLHDPCTADEAAKLAQSDKMAALVKADFDVKIDEVTQIGDVVVERCSISAKLPTGDKNGWSLTVWVKEGGAWKIRNSCITFKAPIPQ”: the “soluble on expression in E. coli” value is listed as “not soluble”.

As for “MSKAIKQNLADSKKMSAELFCLTYGAMVTEMLKDYEDPKDVTIQLDKMGFNMGTRLADDFLAKNANVPRCVDTRQIADVLCRNAIPCYLGISATASSWTSGDREFTITLEANPLTELVQVPAHLVSAGLSYSQLIAGAIRGALEAVHFKVYASATDTGANTEIRIRFDQVLKDSLPAGEDD”, the “soluble on expression in E. coli” value is “not soluble”.

In the case of “MSKATTPGDQPKVSEMDFYQLLGVEKMASEAEIKSAYRKLALKYHPDRNPNDAHAQEEFKKVSIAYSVLSDPNKRRQYDVSGPSENQLDFEGFDVSEMGGVGRVFGALFSKLGVPIPTQIVPKVLAQARHICMGQECDVQARQLPPGETVTSSVSKQHAHFYEINIQEEHRKNGVAIICKSSSSKFKLVLFDKEGGVRMIQESGKRGKAGTQADMFFVPYNVANIQEFNAMKYHLEDKETPLAFHYLDSFEMQTATLLETRKHYIAVYGDNWISDVKYSITFLPVEPSAVEQLNEIQDTEKSISIIKKEMLDFQREFTEAKRKYDEAVAKLKVQDDTILKALAHREELYNEVLQKSQEPYNKKVSPSKSSGGLLGWFK”, the “soluble on expression in E. coli” value is reported as “not soluble”.

As to “MSKDSNKIIEQSREIGISIIMPLYNVEEVILETLESIHEQTFDSYEVLLIDDGSTDKTIEIVTEYIKDKPRFKLYTQPNGGPASARNHGLRLAIGMYICFVDSDDILPNYSLQLMYDGAISTGAKLITGATKRFNSEGEWFIPMHIQYNIAKPGMKTLLKNPELFYSIGPCAKLYHHSLIDGVFFPENIRYGEDQPFVLHALLQAKDIYTVEKVVYYYRLRDGESQSLTQSVDKDPIRILKSVFQIFDYGEEELKKNNTDYEVALKYYQRVSSVELWGALRAAIESKKSENQKIAFTMTLDWLKTKSDDFLNIIPSFRYFLLFSSIERVRYITKDNKENYRNLIGYLWSRQGEEAKIAFRKTYPIPMKAALQIIENNNWRDARKISFKFIVRRKFKAPILIRKISRGIIFRIATLMPRKKNQVILATERSTTLEGNLLAIYDYMFYNNMPQKVYVFLRKNRNWFEMFQLYYTLGRTKTIVLDDYYNKIYGLKFNKNTHVVQSWHATGAFKKFGFSALEGTDANTEEFETRAHSPYTDVLVSSEGIIPEYMEAFRKQANQIKPIGVPRTDVFFDDEYVNYTKEKYMKMYPQLRDKKILLYAPTFRGGPNERFNYSVVLDIAALKKELGDTHILILKFHPVIKNVSFNVEEDDPFILNLTLNNDINDLMLFSDALITDYSSVIFEFSLMNKPIYFFAYDIDDYLDERGFYFDYKATIPGEVFRDTPSLIEAVKSGLYNYDELEIFKKKFVGSLDGNSTKRFVETYIGKANEKVKDILEHHHHHH”, the “soluble on expression in E. coli” value is “soluble”.

In the case of “MSKEIDISIRYLENVLSTNNSTLILSSTAAVLEAVSKNCDTTNGELKRSIISLLRIIDKKCFLNQDVDVNQIKFSLQEVGKLSTKYPKSHQKPGNEVKVKTNAEFREIETVPNPDEENIDNLLNQLNLKKVPSFSPAFPDIGDDSDDENGITTKQKEEERAEQHGQKVCEEEVVKLPDGREIRMKKTKTVNVKQTTKHVTISTKSANMPEVSRTFMNARRGFDEDEEEENTNFGSSNMRGGDPFERFRSMLKDKDEKIEAIEGESSSDPGTPGSSSKSKTIERTSEVSQKVSEKKEKDGRLLAEHEASKLDKSNLFAKQVDTYQGAALIDRKGEGSYEESTLVRSALPQDSQVATPPRMHVVEYMMMFGDDKKNNENEYLKGTTISSYVRLNNNLTTHEEQFKKKIQFEFSTAGTSSTTIDLDNLSDLLNQTDFNCLRPPNKFLEDTPLIVEQPKAIDWQREPTSAPPEKDLLLEHDGVDYVIFREKEGKVLEVRGGPKDALIVYATQSTHSSLLYQEAFLITFRTFISSLELVNKLIKRYLYMSLADDSQSESIARHTFSVIVRIIDETTQYELDFDLITSVTSFVYRLIHDGNFTYSRILRTRLLDRIKDSFDIQTVLGTNLCKPRKPHDLFDFKSAEIACQLTFIDSQLYHRIESAELLWWAQEQNEKKSKNLVNFTEQFNNLSFWVRTLIITQGTQKERERHMMKFVKIMKHLREMCNFNSYLAILSAIMSTPLARLEWSKNIKDALKEHTAVMDTAQSYKNYRALLQTAKPPCVPYIGIILQDLTFVHAGNPDTIPSDRCHGAKNMINFLKRWNQFAILDSIRKLKKWNYDIKKNDIVVQYFNGFKDCIDEERTWQLSHQIKPSNRKSKTQA”, the “soluble on expression in E. coli” value is recorded as “not soluble”.

For the sequence “MSKELTAKKRAALNRLKTVRGHLDGIVRMLESDAYCVDVMKQISAVQSSLERANRVMLHNHLETCFSTAVLDGHGQAAIEELIDAVKFTPALTGPHARLGGAAVGESATEEPMPDASNM”, the “soluble on expression in E. coli” value is “soluble”.

Take “MSKFDTSALEAFVRHIPQNYKGPGGVVAVVKDGEVVLQHAWGFADLRTRTPMTLDTRMPICSVSKQFTCAVLLDAVGEPELLDDALEAYLDKFEDERPAVRDLCNNQSGLRDYWALSVLCGADPEGVFLPAQAQSLLRRLKTTHFEPGSHYSYCNGNFRILADLIEAHTGRTLVDILSERIFAPAGMKRAELISDTALFDECTGYEGDTVRGFLPATNRIQWMGDAGICASLNDMIAWEQFIDATRDDESGLYRRLSGPQTFKDGVAAPYGFGLNLHETGGKRLTGHGGALRGWRCQRWHCADERLSTIAMFNFEGGASEVAFKLMNIALGVSSSEVSRVEADSAWFGSWLDDETGLVLSLEDAGHGRMKARFGTSPEMMDVVSANEARSAVTTIRRDGETIELVRASENLRLSMKRVKGEAKHDIIGRYHSDELDADLLLVSEGGAIYGAFEGFLGKSDMYPLYSVGSDVWLLPVQRSMDAPSPGEWKLVFRRDDKGEITGLSVGCWLARGVEYRRVQP”: the “soluble on expression in E. coli” value is “soluble”.

As for “MSKIDFHTHYLPTSYVEALKRHVPGDPDGWPTPEWTPQLTLNFMRDNDISYSILSLSSPHVNFGDKAETIRLVEAANDDGKSLAQQYPDQLGYLASLPIPYELDAVKTVQQALDQDGALGVTVPTNSRGLYFGSPVLERVYQELDARQAIVALHPNEPAILPKNVDIDLPVPLLGFFMDTTMTFINMLKYHFFEKYPNIKVIIPHAGAFLGIVDDRIAQYAQKVYQVDVYDVMHHVYFDVAGAVLPRQLPTLMSLAQPEHLLYGSDIPYTPLDGSRQLGHALATTDLLTNEQKQAIFYDNAHRLLTELEHHHHHH”, the “soluble on expression in E. coli” value is “soluble”.

“MSKKKQDVSIVRSSAAEYLTFIAAMGDQSQSVEMRYEDENIWLTQKMMASLYDVTVPAINQHLKRIFDDGELLPEAVLKDYLITAADGKQYRTKHYNLQAIISVGFKINNVRAVQFRKWAGQIVKDYTIQGWTMDVERLKKGHLFTDEYFDRQLEYIREIRLSERKFYQKVTDLYATAFDYDKDALTTREFFALVQNKLHWAVHRHTAAELIVSRADAGRTNMGLTHWAAAPQGKIIKSDVSIAKNYLNVQEMEYLERIVSIYLDFAELQAMRKIPMSMQDWARRLDGFLEFNGNEILMGPGKVSQEQAKLHAESEFEQYRIVQDRLFQSDFDRLLLQLESKNKEEGQ”: the “soluble on expression in E. coli” value is “not soluble”.

In the case of “MSKKQSSTPHDALFKLFLRQPETARDFLAFHLPAPIHALCDMKTLKLESRSFIDDDLRESYSDVLWSVKTEQGPGYIYCLIEHQSTSNKLIAFRMMRYAIAAMQNHLDAGYKTLPMVVPLLFYHGIESPYPYSLCWLDCFADPKLARQLYASAFPLIDVTVMPDDEIMQHRRMALLELIQKHIRQRDLMGLVEQMACLLSSGYANDRQIKGLFNYILQTGDAVRFNDFIDGVAERSPKHKESLMTIAERLRQEGEQSKALHIAKIMLESGVPLADIMRFTGLSEEELAAASRLAP”, the “soluble on expression in E. coli” value was “not soluble”.

On to “MSKLMQNPVLHELKKQASFFIKEKIKTARLAVTDVTAEELLTEEVTGSDHSSIDSRSMAAITRVSFEVDQFQRIVKILRQRMVVFDRKEWRGMCNTLSMLNHLLLNGPLSVFSEFQHERAIIEDAIKMEWIDERGFDCGLKVRNIAEKVLRLLEDDMFLKDERERNRKQSIGRITGFGNSSFVIHSETNNGRDGSLMLSNHQTCENDCIADDHPFVENEHKTAQLLLSSST”, for which the “soluble on expression in E. coli” value was “soluble”.

Consider “MSKLSFRARALDASKPLPVFRCEDLPDLHEYASINRAVPQMPTGMEKEEESVMLRFFSLYFYRLYPPSTRSLLCASLHKMAAMFLPDGNGDGAHTSPLVIPHSGWLVGLIRISL”, for which the “soluble on expression in E. coli” value is recorded as “not soluble”.

As to “MSKNIVVAPSILSADFSRLGEEIKAVDEAGADWIHVDVMDGRFVPNITIGPLIVDAIRPLTKKTLDVHLMIVEPEKYVEDFAKAGADIISVHVEHNASPHLHRTLCQIRELGKKAGAVLNPSTPLDFLEYVLPVCDLILIMSVNPGFGGQSFIPEVLPKIRALRQMCDERGLDPWIEVDGGLKPNNTWQVLEAGANAIVAGSAVFNAPNYAEAIAGVRNSKRPEPQLATV”, the “soluble on expression in E. coli” value is “soluble”.

For the sequence “MSKSICKSSMRAAVVRRFGAPDVIEAVESDMPRLEKNQVLVRNYAAGVNPVDTYIRAGQYGKLPNLPYVPGKDGAGFVELVGESVKNVKVGDRVWYGSEADSTAEYVAVNRPFELPEGVSFEEGASLGVPYLTAYRALFHLAGAKTGDVILVHGASGGVGSALMQLAAWRNIEAVGTAGSADGIRFVKSLGARNVYNHSDKQYVSKMKNDYPGGFNHIFEMAAHTNLNTDLGLLAPRGRVAVIGNRAETTINARQLMVTEGAVYGVALGMSSEAELLDFGINIVSFLKETEFRPLINKLYRLEQLGLAHEEIMNNKGAKGNLVVQIEH”, the “soluble on expression in E. coli” value was “not soluble”.

In the case of “MSKSQYKMSKITYASGKMRPPSLIQKLNVYKPFLLIVDINSTNFALVGNGEILGHLFYRQNSPSYTQIKSRLVIYPKCCKLYSEDIAIPLHDWKIENLGAIKLLTKHNSLKTGTLHQIDKTMMLVYMAAFGEDSGVRSKISKPHGKTATWRNQHDLFMQ”, the “soluble on expression in E. coli” value was “not soluble”.

Source of the values: the DeepSol protein solubility set.
